According to article PMC13245265:

Biological target: Tectus dentatus superoxide dismutase 1 (Tectus dentatus)
Assay: SEC

- stoichiometry N: 2
Substance: Tectus dentatus superoxide dismutase 1 (enzyme)
